Consider one molecule from patent US20240239894A1, “THERAPEUTIC BINDING MOLECULES” (MedImmune Limited, priority 2020, published 2024).

Assay [1] addresses T1, Human B7-H4-Fc (Human B7H4 ECD, Fc_6His) (human).
T1 sequence (Q7Z7D3 whole entry, looked up): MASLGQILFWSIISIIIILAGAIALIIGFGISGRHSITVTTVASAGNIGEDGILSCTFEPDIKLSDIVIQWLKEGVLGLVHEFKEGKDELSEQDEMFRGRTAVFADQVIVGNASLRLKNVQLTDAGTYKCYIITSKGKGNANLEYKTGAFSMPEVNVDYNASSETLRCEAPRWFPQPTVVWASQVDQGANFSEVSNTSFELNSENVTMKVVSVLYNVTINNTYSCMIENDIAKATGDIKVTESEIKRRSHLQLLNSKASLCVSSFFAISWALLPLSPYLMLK
Kind of assay: ELISA on coated human B7H4/Fc, absorbance 450 nm, [IgG] 0.006 to 100 nM. (In general: An ELISA detects its analyte on a solid surface through an enzyme-linked reagent.)

Assay [2] has as its target human B7-H4 on cells (human) (UniProt Q7Z7D3). Briefly: flow cytometry, AF647-labelled antibody at 156 ng/ml, HT29 cells expressing hB7-H4.

B1: 1D11 (Genentech anti-B7-H4 mAb) (antibody, from another filing, V domains shown)
VH: QVQLQQSGAELVRPGTSVKMSCKASGYTFTSYWIGWAKQRPGHGFEWIGDIYPGGGYTNYNEKFKGKATLTADKSSSTAYMQFSSLTSEDSAIYYCARLDGSSYRGAMDSWGQGTSITVSS
VL: DIQMTQSPSSLSASLGGKVTITCKASQGFNKYVAWYQHKPGQCPRLLIHYTSTLQPGIPARFSGSGSGRDYSFSISNLEPEDSATYFCLQYGNLLYAFGGGTKLEIKR
Regarding B1, the EC50 (read off the curve) in assay [1] worked out at 5 nM. Also, the Geometric Mean : Comp-APC-A in assay [2] came out at 1200.

What is called EC50 (read off the curve) is the concentration giving half of the maximal effect. A high value points to lower potency in that assay.
